Like-named read-outs stand apart in the source and are kept apart here. Blank lines part the entries; values can stand above or below the binder they belong to.
Tests used:
[1] = molecular target: T1, hu-sCD47-6His; extracellular domain of human CD47 antigen with 6His-tag (human); test: SPR Biacore
T1 construct: also called hCD47-his; soluble hCD47
Excerpt: (§1) An anti-human or anti-mouse IgG (Fc) was first immobilized on the surface of Serie S Sensor Chips CM5 using the human or mouse antibody capture and amine coupling kits, following the manufacturer's instructions (GE Healthcare). […] The mouse, chimerized or humanized antibodies to be tested were then captured onto the appropriate anti-mouse or anti-human IgG surface in all flow cells except flow cell 1 used as control, at concentration and contact time adjusted so that ˜300 RU were captured on the surface. Binding kinetics were studied by passing increasing concentrations of hCD47-his in a series of five 10 minute injections through all flow cells at a rate of 30 μL/min. […] Following the final injection, buffer was passed across each flow cell for 60 minutes (mouse) or 30 minutes (human) to monitor the dissociation of bound antigen. Regeneration of the binding surface was carried out at the end of the cycle by flowing 3 M MgCl₂ for 60 s at 20 μL/min followed by 10 mM glycine-HCl, pH 1.7 for 180 s at 10 μl/min (for human) or by flowing 10 mM glycine-HCl, ph 1.7 for 360 s at 10 μl/min (for mouse). A second cycle with the same antibodies but no antigen was run as a control. Kinetics binding constants were estimated by non-linear fitting of the sensogram data to the 1:1 binding model provided by the Biacore T200 evaluation software.

[2] = molecular target: T2, human CD47 (hCD47) expressed on cells (human, UniProt Q08722 19-323); test: flow cytometry, Raji cells
T2 construct: Transfected CHO cells or endogenous CD47 of human cells; also called CHO-hCD47; CD47 on Raji cells

[3] = molecular target: T2, human CD47 (hCD47) expressed on cells; test: flow cytometry, Raji cells, competition with hSIRPα
[4] = molecular target: T2, human CD47 (hCD47) expressed on cells; test: flow cytometry, Raji cells, competition with His-hSIRPα
Description: The percent inhibition was plotted against antibody concentration and the IC50 values were calculated by using a nonlinear regression analysis model of the GraphPad Prism software.

[5] = molecular target: T1, hu-sCD47-6His; extracellular domain of …; test: SPR Biacore; remark: listed apart in the source
Excerpt: as §1

[6] = molecular target: T2, human CD47 (hCD47) expressed on cells; test: flow cytometry, Raji cells; remark: listed apart in the source
[7] = molecular target: T2, human CD47 (hCD47) expressed on cells; test: flow cytometry, Raji cells, competition with hSIRPα; remark: listed apart in the source
[8] = molecular target: T2, human CD47 (hCD47) expressed on cells; test: flow cytometry on Raji cells, hIgG4 format, delta MFI
[9] = molecular target: T2, human CD47 (hCD47) expressed on cells; test: flow cytometry on Raji cells, hIgG4 format: inhibition of hSIRPα binding to hCD47
[10] = molecular target: T1, hu-sCD47-6His; extracellular domain of …; test: SPR Biacore; remark: listed apart in the source
Excerpt: as §1

[11] = molecular target: T2, human CD47 (hCD47) expressed on cells; test: flow cytometry, Raji cells; remark: listed apart in the source
[12] = molecular target: T1, hu-sCD47-6His; extracellular domain of …; test: SPR Biacore; head read as x 10^-4
Excerpt: as §1

[13] = molecular target: T3, mouse CD47 (mCD47) expressed on CHO cells (mouse, UniProt Q61735 19-303); test: flow cytometry, CHO-mCD47 cells (not shown)
T3 construct: whole, on cells; also called CHO-mCD47
T3 sequence (looked up): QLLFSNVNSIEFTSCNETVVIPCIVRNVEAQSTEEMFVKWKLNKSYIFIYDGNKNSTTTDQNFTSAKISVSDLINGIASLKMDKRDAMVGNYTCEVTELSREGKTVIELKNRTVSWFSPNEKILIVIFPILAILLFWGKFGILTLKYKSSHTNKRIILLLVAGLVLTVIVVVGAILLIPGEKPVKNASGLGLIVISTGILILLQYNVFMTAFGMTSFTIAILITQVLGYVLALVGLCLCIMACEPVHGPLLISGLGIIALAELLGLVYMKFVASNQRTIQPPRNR

[14] = molecular target: T2, human CD47 (hCD47) expressed on cells; test: flow cytometry, Raji cells, competition with hSIRPα; remark: listed apart in the source
[15] = molecular target: T2, human CD47 (hCD47) expressed on cells; test: flow cytometry, Raji cells; remark: listed apart in the source
Description: Raji cells (ATCC-CLL-86; 2×10⁵ cells/well of 96-well plate) were first incubated at +4° C. for 30 minutes with serial dilutions of anti-CD47 antibodies or control isotype antibody (in mIgG2a or mIgG1 format). The cells were then washed and incubated for 30 minutes at +4° C. with a PE-conjugated F(ab)′2 goat anti-mouse IgG antibody ( 1/100 dilution, Beckman Coulter). After washings, the fluorescence of the cells was analyzed by flow cytometry on an Accuri-C6 flow cytometer (BD Biosciences).
The delta of MFI, representing the difference between the intensity measured with the tested antibody and the intensity in the absence of antibody, was calculated for each antibody concentration and the values were plotted against the antibody concentrations. The EC50 values were then calculated by using a nonlinear regression analysis model of the GraphPad Prism software.

[16] = molecular target: T2, human CD47 (hCD47) expressed on cells; test: cell-based or functional assay
[17] = molecular target: T1, hu-sCD47-6His; extracellular domain of …; test: SPR Biacore T200, antibody captured, hCD47-his analyte;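 further: antibodies captured on anti-IgG (Fc) CM5 chip, five sequential 10 min antigen injections at rising concentrations, reference flow cell and antigen-free cycle as controls, 1:1 model fit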
Excerpt: as §1

[18] = molecular target: T2, human CD47 (hCD47) expressed on cells; test: flow cytometry, hCD47-CHO cells, competition with His-hSIRPα
Description: Human CD47-transfected cells (3×10⁵ cells/well of 96-well plate) were first incubated at +4° C. for 30 minutes with serial dilutions of anti-CD47 antibodies or isotype control antibody (in mIgG2a or mIgG1 format). […] The percentage inhibition was plotted against antibody concentration and the IC50 values were calculated using a nonlinear regression analysis model of the GraphPad Prism software.

[19] = molecular target: T3, mouse CD47 (mCD47) expressed on CHO …; test: flow cytometry, CHO-mCD47 cells

- Kd [1]: 10.9 nM
- koff [1]: 0.000306 s⁻¹
- kon [1]: 28400 M⁻¹ s⁻¹
- EC50 [2]: 0.139 µg/mL
- IC50 [3]: 0.096 µg/mL
B1: h22-VH3-VL3 (candidate 22.11) (antibody, human IgG4 S228P, kappa, V domains shown)
VH: QVQLQESGAEVKKPGASVKVSCKASGYTFTTYWMHWVRQAPGQGLEWMGMIHPNSGTTNYNEKFKSRVTMTRDTSTSTVYMELSSLRSEDTAVYYCTRSHYYDGHFSYWGQGTLVTVSS
VL: EIVLTQSPDSLAVSLGERATINCKSSQSLLNSRTRKNYLAWYQQKAGQSPKLLIYWASTRESGVPDRFSGSGSGTDFTLTIDSLQAEDVAVYYCKQSYNLWTFGGGTKVEIKR
notes: hIgG4-S228P/kappa

- Kd [1]: 9.37 nM
- koff [1]: 0.000263 s⁻¹
- kon [1]: 28200 M⁻¹ s⁻¹
- EC50 [2]: 0.184 µg/mL
- IC50 [3]: 0.116 µg/mL
B2: h22-VH4-VL4 (candidate 22.16) (antibody, human IgG4 S228P, kappa, V domains shown)
VH: QVQLVQSGAEVKKPGASVKVSCKGSGYTFTTYWMHWVRQAPGQGLEWMGMIHPNSGTTNYNEKFKSRVTLTRDTSISTAYMELSRLTSDDTAVYYCTRSHYYDGHFSYWGQGTMVTVSS
VL: DIVMTQSPDSLPVSLGERATINCKSSQSLLNSRTRKNYLAWYQQKPGQPPKLLIYWASTRESGVPDRFTGSGSGTDFTLTISALQAEDVAVYYCKQSYNLWTFGQGTRLEIKR
notes: hIgG4-S228P/kappa

- Kd [1]: 12.1 nM
- koff [1]: 0.000351 s⁻¹
- kon [1]: 29100 M⁻¹ s⁻¹
- EC50 [2]: 0.124 µg/mL
- IC50 [3]: 0.098 µg/mL
B3: h22-VH4-VL3 (candidate 22.15) (antibody, human IgG4 S228P, kappa, V domains shown)
VH: QVQLVQSGAEVKKPGASVKVSCKGSGYTFTTYWMHWVRQAPGQGLEWMGMIHPNSGTTNYNEKFKSRVTLTRDTSISTAYMELSRLTSDDTAVYYCTRSHYYDGHFSYWGQGTMVTVSS
VL: EIVLTQSPDSLAVSLGERATINCKSSQSLLNSRTRKNYLAWYQQKAGQSPKLLIYWASTRESGVPDRFSGSGSGTDFTLTIDSLQAEDVAVYYCKQSYNLWTFGGGTKVEIKR
notes: hIgG4-S228P/kappa

- Kd [1]: 10 nM
- koff [1]: 0.000252 s⁻¹
- kon [1]: 25200 M⁻¹ s⁻¹
- EC50 [2]: 0.108 µg/mL
- IC50 [3]: 0.116 µg/mL
B4: h22-VH3-VL4 (candidate 22.12) (antibody, human IgG4 S228P, kappa, V domains shown)
VH: QVQLQESGAEVKKPGASVKVSCKASGYTFTTYWMHWVRQAPGQGLEWMGMIHPNSGTTNYNEKFKSRVTMTRDTSTSTVYMELSSLRSEDTAVYYCTRSHYYDGHFSYWGQGTLVTVSS
VL: DIVMTQSPDSLPVSLGERATINCKSSQSLLNSRTRKNYLAWYQQKPGQPPKLLIYWASTRESGVPDRFTGSGSGTDFTLTISALQAEDVAVYYCKQSYNLWTFGQGTRLEIKR
notes: hIgG4-S228P/kappa

- IC50 [4]: 0.11 µg/mL
B5: Candidate 20, chimeric hIgG format (hIgG1 or hIgG4) (antibody, V domains shown)
VH: QVQLKQSGAELVRPGASVKLSCKASGYSFTDYYINWVKQRPGQGLEWIARIYPGIGNTYYNKKFKGKATLTAEKSSSTAYMQLNSLTSEDSAVYFCARGHYGRGMDYWGQGTSVTVSS
VL: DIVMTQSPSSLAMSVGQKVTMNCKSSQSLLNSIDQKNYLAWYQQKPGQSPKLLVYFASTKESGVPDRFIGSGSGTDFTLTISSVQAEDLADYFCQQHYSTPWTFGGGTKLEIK
notes: also called Candidate 20 (hIgG format)

- IC50 [4]: 0.233 µg/mL
B6: Candidate 22, chimeric hIgG format (hIgG1 or hIgG4) (antibody, V domains shown)
VH: QVQLQQPGAELVKPGASVKLSCKASGYTFTTYWMHWVKQRPGQGLEWIGMIHPNSGTTNYNEKFKSKATLTVDKSSSSTYMQLSSLTSEDSAVYYCTRSHYYDGHFSYWGQGTLVTVSA
VL: DIVMSQSPSSLAVSAGEKVTMSCKSSQSLLNSRTRKNYLAWYQQKPGQSPKLLIYWASTRESGVPDRFTGSGSGTDFTLTISSVQAEDLAVYYCKQSYNLWTFGGGTRLEIK
notes: also called Candidate 22 (hIgG format)

- Kd [5]: 2.32 nM
- koff [5]: 0.000573 s⁻¹
- kon [5]: 264000 M⁻¹ s⁻¹
- EC50 [6]: 0.117 µg/mL
- IC50 [7]: 0.17 µg/mL
- EC50 (read off the curve) [8]: ~0.1 µg/mL
- IC50 (read off the curve) [9]: ~0.3 µg/mL
B7: h20-H3-L3Y (candidate 20.28), hIgG4-S228P (antibody, V domains shown)
VH: QVQLVQSGAEVKKPGASVKVSCKASGYSFTDYYINWVRQAPGQGLEWMGRIYPGIGNTYYNKKFKGRVTVTRDTSISTAHMELSSLRSDDTAVYYCARGHYGRGMDYWGQGTAVTVSS
VL: EIVLTQSPDSLAVSLGERATINCKSSQSLLNSIDQKNYLAWYQQKAGQSPKLLIYYASTKESGVPDRFSGSGSGTDFTLTIDSLQAEDVAVYYCQQHYSTPWTFGGGTKVEIKR
notes: also called H20-VH3-VL3,Y

- Kd [10]: 3.05 nM
- kon [10]: 214000 M⁻¹ s⁻¹
- EC50 [11]: 0.147 µg/mL
- koff [12]: 0.000594 s⁻¹
- binding result [13]: no binding
- IC50 [14]: 0.173 µg/mL
- EC50 (read off the curve) [8]: ~0.08 µg/mL
- IC50 (read off the curve) [9]: ~0.2 µg/mL
B8: h20-VH3-VL3 (candidate 20.13) (antibody, human IgG4 S228P, kappa, V domains shown)
VH: QVQLVQSGAEVKKPGASVKVSCKASGYSFTDYYINWVRQAPGQGLEWMGRIYPGIGNTYYNKKFKGRVTVTRDTSISTAHMELSSLRSDDTAVYYCARGHYGRGMDYWGQGTAVTVSS
VL: EIVLTQSPDSLAVSLGERATINCKSSQSLLNSIDQKNYLAWYQQKAGQSPKLLIYFASTKESGVPDRFSGSGSGTDFTLTIDSLQAEDVAVYYCQQHYSTPWTFGGGTKVEIKR
notes: hIgG4-S228P/kappa; also called h20-H3-L3

- EC50 [15]: 0.301 µg/mL
B9: 5A3M3 (mouse antibody from Novimmune) (antibody, V domains shown)
VH: not shown
VL: DIQMTQSPSSLSASVGDRVTITCQASQSISSYLNWYQQKPGKAPKLLIYAASSLETGVPSRFSGSGSGTDFTFTISSLQPEDIATYYCQQKHPRGPRTFGQGTKVEIKR

- Phagocytic index, Raji cells and human macrophages, antibody at 0.125 µg/mL [16]: 113 Raji cells ingested per 100 macrophages
- EC50 [15]: 0.058 µg/mL
- Kd [17]: 0.127 nM
- koff [17]: 4.99e-05 s⁻¹
- kon [17]: 401000 M⁻¹ s⁻¹
- IC50 [18]: 0.739 µg/mL
B10: 2A1 (mouse antibody from Inhibrx) (antibody, V domains shown)
VH: EVQLQQSGAELVRSGASVKLSCTASGFNIKDYYLHWVKQRPEQGLEWIGWIDPDNGDTEFAPKFQGKATMTADTSSNTAYLQLSSLTSEDTAVYYCNAAYGSSSYPMDYWGQGTSVTV
VL: DIKMTQSPSSLYASLGERVTITCKASQDIHRYLSWFQQKPGKSPKILIYRANRLVDGVPSRFSGSGSGQDYSLTISSLEYEDMGIYYCLQYDEFPYTFGGGTKLEMK

- IC50 [4]: 0.11 µg/mL
B11: Candidate 33, chimeric hIgG format (hIgG1 or hIgG4) (antibody, V domains shown)
VH: LVQLQQSGPELVKPGTSVKISCRSSGYTFTDYYINWVQQRPGQGLEWVGWIFPGSGLTYYNKKFKGKATLSVDKSSNTAYMLLSSLTSEDSAVYFCARPYYGSRWDYTMDYWGQGTSVTVSS
VL: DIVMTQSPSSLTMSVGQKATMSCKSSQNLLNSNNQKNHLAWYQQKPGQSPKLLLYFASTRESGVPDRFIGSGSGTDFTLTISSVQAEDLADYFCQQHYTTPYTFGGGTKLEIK
notes: also called Candidate 33 (hIgG format)

- Phagocytic index, Raji cells and human macrophages, antibody at 0.125 µg/mL [16]: 78.9 Raji cells ingested per 100 macrophages
- EC50 [15]: 0.055 µg/mL
- Kd [17]: 3.85 nM
- koff [17]: 0.00337 s⁻¹
- kon [17]: 874000 M⁻¹ s⁻¹
- IC50 [18]: 0.737 µg/mL
B12: Candidate 14 (VT008-AL6-14G1-16K1), mouse IgG (antibody, V domains shown)
VH: QVQLQQPGAELVKPGASLRVSCKASGYTFTNYWMYWVRQRPGRGLEWIGWIDPNSGGTKYNEKFKSKATLTVDKPSSTAYMQLSSLTSEDSAVYNCARGGYTMDYWGQGTSVTVSS
VL: DVVMTQTPLSLPVSLGDQASISCRASQSLVHSNGNTYLHWYLQKPGQSPKLLIYKVSNRFSGVPDRFSGSGSGTDFTLKISRVEAEDLGVYFCSQSTHVPLTFGAGTKLELK
notes: Recombinant mouse IgG2a or mIgG1 format, by assay

- Phagocytic index, Raji cells and human macrophages, antibody at 0.125 µg/mL [16]: 124 Raji cells ingested per 100 macrophages
- EC50 [15]: 0.058 µg/mL
- Kd [17]: 1.94 nM
- koff [17]: 0.00037 s⁻¹
- kon [17]: 190000 M⁻¹ s⁻¹
- IC50 [18]: 0.657 µg/mL
B13: Candidate 7 (VT008-AL5-10G7-10K7), mouse IgG (antibody, V domains shown)
VH: QVQLQQPGAELVMPGSSVKLSCKTSGYTFTKYWMHWVKRRPGQGLEWIGEINPSDTYTNYNQKFKGKSTLTVDKSSSTAYMQLSSLTSEDSAVYFCARVATMVARGFAYWGQGTLVTVSA
VL: DIVMTQSHKFMSTSVGDRVSITCKASQDVSGAVVWYQEKPGQSPNLLIYLATYRYTGVPDRFTGSGSGTDFTLTIRSVQAEDMAVYYCQQYYSIPWTFGGGTKLEIK
- binding result [19]: no binding (tested: 7.3 µg/mL highest concentration)
